Residue numbers refer to the chain shown, from its start.
Columns and labels:
[1] = target: recombinant human IL-5 protein with His tag (human, UniProt P05113 20-134, limits assumed, biotin-labeled in the ELISA and in the receptor blocking assay (site not stated)); experiment: cell-based or functional assay
[2] = target: recombinant human IL-5 protein (human, UniProt P05113 20-134, limits assumed); experiment: cell-based or functional assay
[3] = target: T1, mouse IL-5 (mouse, UniProt P04401 21-133); experiment: ELISA on mouse IL-5; antibody 0.0002 nM
T1 construct: Source and construct of the mouse IL-5 are not described; also called mouse IL-5 protein
T1 sequence (looked up): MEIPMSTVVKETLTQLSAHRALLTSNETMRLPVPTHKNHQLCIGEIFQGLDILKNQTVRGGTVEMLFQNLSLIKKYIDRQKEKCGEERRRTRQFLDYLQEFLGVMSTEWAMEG
Procedure: (§1) The titer of antibody reacting with human IL-5 protein and the cross reaction with mouse and monkey IL-5 protein were detected and analyzed by enzyme-linked immunosorbent assay (ELISA). Streptavidin was diluted with PBS to a final concentration of 1.0 μg/ml, and then added to a 96-well enzyme-labeled plate as 100 microliters per well. The plate was incubated at 4° C. overnight. On the second day, the plate was washed twice with washing solution (PBS+0.01% Tween20). The blocking solution (PBS+0.05% Tween20+2% BSA) was added for blocking at 37° C. for 1-2 hours. Then the blocking solution was discarded. The biotin-labeled human IL-5 was diluted with sample diluent (PBS+0.05% Tween20+0.2% BSA) to 0.5 μg/ml, and added to an enzyme-labeled plate at 50-100 microliters per well, and incubated at 37° C. for 1 hour. The plate was washed with plate washing solution (PBS+0.05% Tween 20) for 2-3 times. 50-100 microliters of antibody samples to be tested were added to each well, and incubated at 37° C. for 1 hour. Then the plate was washed with plate washing solution (PBS+0.05% Tween20) for 2-3 times. The horseradish peroxidase labeled secondary antibody against human or mouse IgG was added, and reacted at 37° C. for 1 hour. The plate was washed with plate washing solution (PBS+0.05% Tween 20) for 2-3 times. […] The value of O.D. 450 nm was read by ELISA plate reader (SpectraMax M5e, Molecular Device).

[4] = target: T2, recombinant monkey IL-5 (monkey (cynomolgus macaques)); experiment: ELISA, monkey IL-5, Ab 0.0043 nM
Procedure: as §1, with “times.” for “times. The horseradish peroxidase labeled secondary antibody against human or mouse IgG was added, and reacted at 37° C. for 1 hour. The plate was washed with plate washing solution (PBS+0.05% Tween 20) for 2-3 times.”
(§2) The titer of chimeric antibody reacting with human IL-5 protein and the cross reaction with mouse and monkey IL-5 protein were detected and analyzed by enzyme-linked immunosorbent assay (ELISA). […]

[5] = target: T2, recombinant monkey IL-5; experiment: ELISA, monkey IL-5, Ab 0.0002 nM
Procedure: as §1, with “times.” for “times. The horseradish peroxidase labeled secondary antibody against human or mouse IgG was added, and reacted at 37° C. for 1 hour. The plate was washed with plate washing solution (PBS+0.05% Tween 20) for 2-3 times.”
as §2

[6] = target: T3, mouse IL-5 (mouse, UniProt P04401 21-133); experiment: ELISA, mouse IL-5, Ab 0.0043 nM
T3 sequence (looked up): T1 sequence (looked up)
Procedure: as §1, with “times.” for “times. The horseradish peroxidase labeled secondary antibody against human or mouse IgG was added, and reacted at 37° C. for 1 hour. The plate was washed with plate washing solution (PBS+0.05% Tween 20) for 2-3 times.”
as §2

[7] = target: T3, mouse IL-5; experiment: ELISA, mouse IL-5, Ab 0.0002 nM
Procedure: as §1, with “times.” for “times. The horseradish peroxidase labeled secondary antibody against human or mouse IgG was added, and reacted at 37° C. for 1 hour. The plate was washed with plate washing solution (PBS+0.05% Tween 20) for 2-3 times.”
as §2

B1: 102A2E11B6 (as tested in Example 9, format not stated) (antibody, V domains shown)
VH: QVQLRQSGPGLVQPSQSLSITCTVSGFSLTSYGVHWVRQSPGKGLEWLGVIWSGGSTDYNAVFMSRLSISKDSSKSQVFFKMNSLQTDDTAIYYCARNRYVLDYWGQGTSVTVSS
VL: DIVMTQSPSSLSVSAGERVTMRCKSSQSLLTSGDQKNHLAWYQQKPGQPPKLLIYGASTRESGVPDRFTGSGSGTDFTLTITSVQAEDLAVYYCQNDHSFPLTFGAGTKLELK
TF1 (IC50), TF1 proliferation induced by IL-5 [1]: ~1 pM

B2: 147D7H2 (as tested in Example 9, format not stated) (antibody, V domains shown)
VH: EVQLQQSGAELVKPGASVKLSCTASGFNIKDYFIHWVKQRTEQGLEWIGRIDTEDGETKYAPKFQGKATITIDTSSNTAYLYFSSLTSEDTAMYYCARYGNYVAMDYWGQGTSVTVSS
VL: QIVLTQSPALMSASPGEKVTMTCSASSSVSYMFWYQQKPSSSPKPWIYLTSKLASGVPARFSGSGSGTSYSLTISSVEAEDAATYYCQQWNSNPYTFGGGTKLEIK
TF1 (IC50), TF1 proliferation induced by IL-5 [1]: ~1 pM

B3: 151G3B11 (as tested in Example 9, format not stated) (antibody, V domains shown)
VH: EVHLQQSGAELVKPGASVKLSCTASGFNIKDYYMHWVKQRTEQGLEWIGRIDPEDGETKYAPKFQGQATITADTSSNTANLQLSSLTSEDTAVYYCARYGNFPDYWGPGTTLTVSS
VL: B2 VL with F33Y, S40R, V77M
TF1 (IC50), TF1 proliferation induced by IL-5 [1]: ~1 pM

B4: 147D7H2 (as tested in Example 9; murine or chimeric form not stated) (antibody, V domains shown)
VH: B2 VH
VL: B2 VL
TF1 (IC50, nM) [2]: 0.002 nM

B5: 69F2F3 (murine hybridoma antibody) (antibody, V domains shown)
VH: QVQLKQSGPGLVQPSQSLSITCTVSGFSLSNYGVHWVRQSPGKGLEWLGVIWSGGSTDYNAAFKSRLSITKDNSKSQVVFRMNSLQTDDTATYYCARNKDFLDYWGQGTKFTVSS
VL: DIVMTQSPSSLTVTAGEKVTMTCKSSQGLLNSGNQKNYLTWYQQKPGQPPKLLIYWASTRESGVPDRFTGSGSGTDFTLTISSVQAEDLAVYYCQNDYHFPLTFGAGTKLELK
notes: Mouse monoclonal antibody from hybridoma, purified on Protein G; also called lead antibody; antibody number 3
OD450 nm [3]: 0.049

B6: 147D7H2 mouse-human chimeric antibody (antibody, V domains shown)
VH: B2 VH
VL: B2 VL
OD450 nm [4]: 0.092 OD450 nm
OD450 nm [5]: 0.093 OD450 nm

B7: 102A2E11B6 mouse-human chimeric antibody (antibody, V domains shown)
VH: B1 VH
VL: B1 VL
OD450 nm [6]: 0.069 OD450 nm
OD450 nm [7]: 0.046 OD450 nm

Source: patent US20220010008A1 (SHANGHAI PHARMAEXPLORER, published 2022)
